In US20210063414A1, “METHODS FOR PREVENTING AND/OR TREATING BONE LOSS CONDITIONS BY MODULATING IRISIN” (Dana-Farber Cancer Institute, Inc., priority 2018, published 2021):

Experiments:
[1] = biological target: T1, MLO-Y4 cell surface proteins (Mus musculus, UniProt O70404); assay: Crosslinking/co-immunoprecipitation/mass spectrometry (TMT quantitative proteomics) to identify irisin receptors; assay type: binding; conditions: co-precipitated protein Vamp8 (VAMP8_MOUSE)
T1 construct: endogenous in cells; host or cells: MLO-Y4
T1 sequence (O70404 1-101): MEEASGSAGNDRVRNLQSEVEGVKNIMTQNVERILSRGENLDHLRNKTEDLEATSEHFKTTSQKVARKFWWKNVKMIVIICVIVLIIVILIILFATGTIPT
How it was run: (§1)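 Relative protein abundance came from 6-plex TMT MS3 quantitation on an Orbitrap Fusion Lumos, after in-gel trypsin digestion of Coomassie-stained SDS-PAGE lanes. Input was a Ni-NTA pulldown (250 mM imidazole elution) of lysates from murine MLO-Y4 cells. These cells were treated on ice with His-tagged irisin or adipsin (10 nM, 20 min) in serum-free medium, then crosslinked with 1.5 mM DTSSP for 30 min.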

[2] = biological target: T2, MLO-Y4 cell surface proteins (Mus musculus, UniProt Q9D3P1); assay: as above; assay type: binding; conditions: co-precipitated protein Tchhl1 (TCHL1_MOUSE)
T2 construct: endogenous in cells; host or cells: MLO-Y4
T2 sequence (Q9D3P1 1-638): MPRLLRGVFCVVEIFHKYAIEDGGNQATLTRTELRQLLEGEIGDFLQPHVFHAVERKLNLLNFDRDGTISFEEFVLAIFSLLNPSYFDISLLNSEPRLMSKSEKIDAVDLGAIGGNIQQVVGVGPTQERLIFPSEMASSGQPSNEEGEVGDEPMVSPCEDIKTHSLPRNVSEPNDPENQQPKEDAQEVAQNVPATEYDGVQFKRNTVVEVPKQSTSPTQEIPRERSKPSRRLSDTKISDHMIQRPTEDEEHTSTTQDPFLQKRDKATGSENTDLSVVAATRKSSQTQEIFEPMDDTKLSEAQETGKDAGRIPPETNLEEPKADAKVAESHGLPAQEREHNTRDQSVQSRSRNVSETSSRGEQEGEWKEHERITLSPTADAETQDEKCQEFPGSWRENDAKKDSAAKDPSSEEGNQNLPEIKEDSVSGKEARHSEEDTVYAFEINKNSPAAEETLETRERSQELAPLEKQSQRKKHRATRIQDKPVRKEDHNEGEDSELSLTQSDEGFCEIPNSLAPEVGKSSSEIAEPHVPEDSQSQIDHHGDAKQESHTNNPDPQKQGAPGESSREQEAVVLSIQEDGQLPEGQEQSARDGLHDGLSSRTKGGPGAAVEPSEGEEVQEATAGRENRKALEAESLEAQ
How it was run: as §1

B1: irisin: secreted cleaved form of FNDC5; recombinant human/mouse irisin with C-terminal his tag produced in HEK293 cells (protein)
chain: DSPSAPVNVTVRHLKANSAVVSWDVLEDEVVIGFAISQQKKDVRMLRFIQEVNTTTRSCALWDLEEDTEYIVHVQAISIQGQSPASEPVLFKTPREAEKMASKNKDEVTMKE
modifications: left off: small tags and cut ends
notes: secreted cleaved form of FNDC5; recombinant human/mouse irisin with C-terminal his tag produced in HEK293 cells
Which results are given for B1?
TMT signal-to-noise ratio [1]: 169.775; irisin/adipsin TMT signal-to-noise ratio [1]: 0.566; TMT signal-to-noise ratio [2]: 23.5307; irisin/adipsin TMT signal-to-noise ratio [2]: 0.013
